Data on five molecules can be found in patent US20240132591A1 (PANDION OPERATIONS, published 2024).

In assay [1] the target is T1, cyno MAdCAM (cyno).
T1 construct: also called cynomolgus monkey MAdCAM-1
Nature of the assay: BLI Octet, AHC capture. (In general: In BLI a coated tip is dipped into the sample, and binding shifts an interference pattern.)

Assay [2] has as its target T2, Insulin (UniProt P01308 25-54; P01308 90-110).
T2 construct: Polyreactivity antigen; mature insulin has A and B chains; also called human insulin
Nature of the assay: ELISA on insulin-coated plate. Background: An ELISA detects its analyte on a solid surface through an enzyme-linked reagent.

Assay [3] concerns the target T3, Human MAdCAM (human, UniProt Q13477 19-317, limits assumed).
T3 construct: also called huMAdCAM; human MAdCAM-1
T3 sequence (looked up): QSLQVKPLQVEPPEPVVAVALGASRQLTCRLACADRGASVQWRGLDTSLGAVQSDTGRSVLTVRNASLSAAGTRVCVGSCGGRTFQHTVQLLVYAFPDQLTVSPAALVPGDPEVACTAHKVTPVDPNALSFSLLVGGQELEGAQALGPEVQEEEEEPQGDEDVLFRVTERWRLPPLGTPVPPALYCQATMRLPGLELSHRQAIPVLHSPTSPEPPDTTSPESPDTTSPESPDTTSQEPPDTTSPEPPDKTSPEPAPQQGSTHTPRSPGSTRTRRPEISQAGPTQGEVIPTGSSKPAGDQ
Briefly: BLI Octet, AHC capture.

For assay [4], the target named is T2, Insulin. Briefly: ELISA on insulin-coated plate, 100 nM. As for the experimental part: Non-specific DNA and Insulin binding is predictive of poor pharmacokinetics (PK). An immunosorbent plate was coated with dsDNA at a concentration of 1 μg/mL or Insulin at 5 μg/mL in PBS pH 7.4, 75 μl/well, and incubated overnight at 4° C. Wells were washed with PBS pH 7.4 containing 0.05% Tween-20 (wash buffer) three times, and then blocked with 200 μl/well 1% BSA in PBS pH 7.4 (block buffer) for two hours at room temperature. […] The diluted material was added to the DNA/insulin coated plate at 75 μl/well for 1 hour at room temperature. After three washes with wash buffer, a donkey anti-human FcY HRP conjugated polyclonal antibody, diluted to 1:5000 in assay buffer, was added to the plate at 75 μl/well for 1 hr at room temperature. After three washes with wash buffer and three washes with wash buffer (with no tween-20), the assay was developed with TMB, and stopped with 1N HCL. OD 450 nm was measured. The experiment included appropriate controls for non-specific binding of test articles to the plate/block in the absence of DNA or insulin.

The target of assay [5] is T4, mouse MAdCAM (mouse, UniProt Q61826 22-365, limits assumed).
T4 construct: also called mouse MAdCAM-1
T4 sequence (looked up): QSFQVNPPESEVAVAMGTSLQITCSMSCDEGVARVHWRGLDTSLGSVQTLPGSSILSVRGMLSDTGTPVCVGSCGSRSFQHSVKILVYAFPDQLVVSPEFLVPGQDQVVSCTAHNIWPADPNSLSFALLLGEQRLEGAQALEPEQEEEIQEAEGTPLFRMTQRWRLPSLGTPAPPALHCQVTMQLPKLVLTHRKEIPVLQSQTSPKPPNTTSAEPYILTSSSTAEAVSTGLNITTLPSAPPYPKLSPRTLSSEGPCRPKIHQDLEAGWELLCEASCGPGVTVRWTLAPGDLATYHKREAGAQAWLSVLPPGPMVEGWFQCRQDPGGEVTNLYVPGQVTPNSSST
Nature of the assay: BLI Octet.

The target in assay [6] is T3, Human MAdCAM. Briefly: BLI Octet.
Assay [7] deals with T4, mouse MAdCAM. Briefly: BLI Octet, AHC capture.

Values joined by “and” are separate entries in the source; they are usually repeats but may differ in a detail not shown here. Equal entries are not always repeated.

B1: PRNT1 (antibody, human IgG1, kappa)
heavy: EVQLLESGGGLVQPGGSLRLSCAASGFTFSDFWMHWVRQAPGKGLEWISYISGDSGYTNYADSVKGRFTISRDNSKNTLYLQMNSLRAEDTAVYYCARDRPYYYYMDVWGKGTTVTVSSASTKGPSVFPLAPSSKSTSGGTAALGCLVKDYFPEPVTVSWNSGALTSGVHTFPAVLQSSGLYSLSSVVTVPSSSLGTQTYICNVNHKPSNTKVDKKVEPKSCDKTHTCPPCPAPEAAGAPSVFLFPPKPKDTLMISRTPEVTCVVVDVSHEDPEVKFNWYVDGVEVHNAKTKPREEQYNSTYRVVSVLTVLHQDWLNGKEYKCKVSNKALPAPIEKTISKAKGQPREPQVYTLPPSREEMTKNQVSLTCLVKGFYPSDIAVEWESNGQPENNYKTTPPVLDSDGSFFLYSKLTVDKSRWQQGNVFSCSVMHEALHNHYTQKSLSLSPGGGGGSAPTSSSTKKTQLQLEHLLLDLQMILNGINNYKNPKLTRMLTFKFYMPKKATELKHLQCLEEELKPLEEALNLAPSKNFHLRPRDLISDINVIVLELKGSETTFMCEYADETATIVEFINRWITFSQSIISTLT
light: DIQMTQSPSSLSASVGDRVTITCRASQSVSRSLAWYQQKPGKAPKLLIYAASSLQSGVPSRFSGSGSGTDFTLTISSLQPEDFATYYCQQYKSYPVTFGQGTKVEIKRTVAAPSVFIFPPSDEQLKSGTASVVCLLNNFYPREAKVQWKVDNALQSGNSQESVTEQDSKDSTYSLSSTLTLSKADYEKHKVYACEVTHQGLSSPVTKSFNRGEC
notes: also called parent PRNT1; parental molecule PRNT1
In general, Kd refers to the equilibrium constant for the complex coming apart. Higher therefore signals a looser complex. On to B1, for which, in assay [1], the equilibrium dissociation constant (Kd) is 13 nM.

B2: MIAB151 (antibody, human IgG1, kappa)
heavy: EVQLLESGGGLVQPGGSLRLSCAASGFTFSDFWMHWVRQAPGKGLEWISYISGDSGYTNYADSVKGRFTISRDNSKNTLYLQMNSLRAEDTAVYYCARDRPYYYYMDVWGKGTTVTVSSASTKGPSVFPLAPSSKSTSGGTAALGCLVKDYFPEPVTVSWNSGALTSGVHTFPAVLQSSGLYSLSSVVTVPSSSLGTQTYICNVNHKPSNTKVDKKVEPKSCDKTHTCPPCPAPEAAGAPSVFLFPPKPKDTLMISRTPEVTCVVVDVSHEDPEVKFNWYVDGVEVHNAKTKPREEQYNSTYRVVSVLTVLHQDWLNGKEYKCKVSNKALPAPIEKTISKAKGQPREPQVYTLPPSREEMTKNQVSLTCLVKGFYPSDIAVEWESNGQPENNYKTTPPVLDSDGSFFLYSKLTVDKSRWQQGNVFSCSVMHEALHNHYTQKSLSLSPGGGGGSAPTSSSTKKTQLQLEHLLLDLQMILNGINNYKNPKLTRMLTFKFYMPKKATELKHLQCLEEELKPLEEALNLAPSKNFHLRPRDLISDINVIVLELKGSETTFMCEYADETATIVEFINRWITFSQSIISTLT
light: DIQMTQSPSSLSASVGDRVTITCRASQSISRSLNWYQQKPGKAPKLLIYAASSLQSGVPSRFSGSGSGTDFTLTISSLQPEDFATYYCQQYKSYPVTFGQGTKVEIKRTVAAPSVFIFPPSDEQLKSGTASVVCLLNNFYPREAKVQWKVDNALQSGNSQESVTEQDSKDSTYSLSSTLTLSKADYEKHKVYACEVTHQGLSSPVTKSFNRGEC
Broadly, the koff is a measure of how fast the partners let go of each other. Higher therefore signals fast dissociation. A word on the kon: it is a measure of how fast the partners come together. High values mean fast association, low ones slow association. Regarding B2, the binding result in assay [2] was “no binding (tested: 100 nM)”. Moreover, in assay [3], the Kd was determined as 2960 nM, the koff came to 0.292 s⁻¹ and the kon stood at 98700 M⁻¹ s⁻¹. This molecule had an Insulin polyreactivity score in assay [4] of 3.63.

B3: MIAB153 (antibody, human IgG1, kappa)
heavy: EVQLLESGGGLVQPGGSLRLSCAASGFTFSDFWMHWVRQAPGKGLEWISYISGDSGYTNYADSVKGRFTISRDNSKNTLYLQMNSLRAEDTAVYYCARDRPYYYYMDVWGKGTTVTVSSASTKGPSVFPLAPSSKSTSGGTAALGCLVKDYFPEPVTVSWNSGALTSGVHTFPAVLQSSGLYSLSSVVTVPSSSLGTQTYICNVNHKPSNTKVDKKVEPKSCDKTHTCPPCPAPEAAGAPSVFLFPPKPKDTLMISRTPEVTCVVVDVSHEDPEVKFNWYVDGVEVHNAKTKPREEQYNSTYRVVSVLTVLHQDWLNGKEYKCKVSNKALPAPIEKTISKAKGQPREPQVYTLPPSREEMTKNQVSLTCLVKGFYPSDIAVEWESNGQPENNYKTTPPVLDSDGSFFLYSKLTVDKSRWQQGNVFSCSVMHEALHNHYTQKSLSLSPGGGGGSAPTSSSTKKTQLQLEHLLLDLQMILNGINNYKNPKLTRMLTFKFYMPKKATELKHLQCLEEELKPLEEALNLAPSKNFHLRPRDLISDINVIVLELKGSETTFMCEYADETATIVEFINRWITFSQSIISTLT
light: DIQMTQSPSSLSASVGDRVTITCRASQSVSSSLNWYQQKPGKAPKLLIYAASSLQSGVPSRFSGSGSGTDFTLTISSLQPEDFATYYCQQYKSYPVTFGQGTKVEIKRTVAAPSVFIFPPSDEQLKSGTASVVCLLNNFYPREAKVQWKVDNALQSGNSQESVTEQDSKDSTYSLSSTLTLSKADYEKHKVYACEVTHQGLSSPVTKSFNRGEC
In the case of B3, the binding result in assay [2] is on record as “no binding (tested: 100 nM)”. In assay [3], the affinity, expressed as Kd, was 8360 nM; the koff stood at 0.543 s⁻¹; the kon was determined as 64800 M⁻¹ s⁻¹. This molecule also displayed an Insulin polyreactivity score in assay [4] of 2.46.

B4: MIAB169 (antibody, human IgG1, kappa)
heavy: EVQLLESGGGLVQPGGSLRLSCAASGFTFSDFWMHWVRQAPGKGLEWISYISGDSGYTNYADSVKGRFTISRDNSKNTLYLQMNSLRAEDTAVYYCARDRPYYYIMDVWGKGTTVTVSSASTKGPSVFPLAPSSKSTSGGTAALGCLVKDYFPEPVTVSWNSGALTSGVHTFPAVLQSSGLYSLSSVVTVPSSSLGTQTYICNVNHKPSNTKVDKKVEPKSCDKTHTCPPCPAPEAAGAPSVFLFPPKPKDTLMISRTPEVTCVVVDVSHEDPEVKFNWYVDGVEVHNAKTKPREEQYNSTYRVVSVLTVLHQDWLNGKEYKCKVSNKALPAPIEKTISKAKGQPREPQVYTLPPSREEMTKNQVSLTCLVKGFYPSDIAVEWESNGQPENNYKTTPPVLDSDGSFFLYSKLTVDKSRWQQGNVFSCSVMHEALHNHYTQKSLSLSPGGGGGSAPTSSSTKKTQLQLEHLLLDLQMILNGINNYKNPKLTRMLTFKFYMPKKATELKHLQCLEEELKPLEEALNLAPSKNFHLRPRDLISDINVIVLELKGSETTFMCEYADETATIVEFINRWITFSQSIISTLT
light: DIQMTQSPSSLSASVGDRVTITCRASQSVSRSLAWYQQKPGKAPKLLIYAASSLQSGVPSRFSGSGSGTDFTLTISSLQPEDFATYYCQQYKSYPVTFGQGTKVEIKRTVAAPSVFIFPPSDEQLKSGTASVVCLLNNFYPREAKVQWKVDNALQSGNSQESVTEQDSKDSTYSLSSTLTLSKADYEKHKVYACEVTHQGLSSPVTKSFNRGEC
notes: Y105I variant; also called MIAB169-CHO; MIAB169-HEK
As for B4, the binding result in assay [2] was “no binding (tested: 100 nM)”. Moreover, in assay [3], the Kd is 266 nM and 340 nM; the “fold lower affinity than PRNT1” value turned out to be 10 fold; the koff was found to be 0.0738 s⁻¹; the kon amounted to 278000 M⁻¹ s⁻¹. This molecule came in with a Kd in assay [1] of 153 nM.

B5: PMAB1 (bispecific antibody, human IgG1, kappa)
heavy: EVQLLESGGGLVQPGGSLRLSCAASGFTFSNSDMSWVRQAPGKGLEWVSGITISGGSTYYADSVKGRFTISRDNSKNTLYLQMNSLRAEDTAVYYCARGRGGSGWLDYWGQGTLVTVSSASTKGPSVFPLAPSSKSTSGGTAALGCLVKDYFPEPVTVSWNSGALTSGVHTFPAVLQSSGLYSLSSVVTVPSSSLGTQTYICNVNHKPSNTKVDKKVEPKSCDKTHTCPPCPAPEAAGAPSVFLFPPKPKDTLMISRTPEVTCVVVDVSHEDPEVKFNWYVDGVEVHNAKTKPREEQYNSTYRVVSVLTVLHQDWLNGKEYKCKVSNKALPAPIEKTISKAKGQPREPQVYTLPPSREEMTKNQVSLTCLVKGFYPSDIAVEWESNGQPENNYKTTPPVLDSDGSFFLYSKLTVDKSRWQQGNVFSCSVMHEALHNHYTQKSLSLSPGGGGGSGGGGSGGGGSEVQLLESGGGLVQPGGSLRLSCAASGFTFSDFWMHWVRQAPGKGLEWISYISGDSGYTNYADSVKGRFTISRDNSKNTLYLQMNSLRAEDTAVYYCARDRPYYYYMDVWGKGTTVTVSSGGGGSGGGGSGGGGSGGGGSDIQMTQSPSSLSASVGDRVTITCRASQSVSRSLAWYQQKPGKAPKLLIYAASSLQSGVPSRFSGSGSGTDFTLTISSLQPEDFATYYCQQYKSYPVTFGQGTKVEIK
light: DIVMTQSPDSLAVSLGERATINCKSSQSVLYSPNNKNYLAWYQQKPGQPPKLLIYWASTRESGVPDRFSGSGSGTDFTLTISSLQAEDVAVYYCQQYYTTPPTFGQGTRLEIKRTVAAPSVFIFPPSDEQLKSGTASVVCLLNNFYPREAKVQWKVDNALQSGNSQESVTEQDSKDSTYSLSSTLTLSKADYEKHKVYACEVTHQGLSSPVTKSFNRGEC
notes: also called Parental molecule; parental PMAB1
In assay [5], B5 registered a Kd of 124 nM, a koff of 0.0463 s⁻¹, a kon of 374000 M⁻¹ s⁻¹ and a response of 0.256. Also, in assay [6], the Kd amounted to 37.6 nM, the koff worked out at 0.0398 s⁻¹, the kon worked out at 1.06e+06 M⁻¹ s⁻¹ and the response is 0.0839. For the same molecule, in assay [7], the Kd was determined as 138 nM, the koff amounted to 0.0204 s⁻¹, the kon turned out to be 148000 M⁻¹ s⁻¹ and the response was 0.139. For the same molecule, in assay [3], the Kd is 135 nM and 115 nM and 116 nM and 62.8 nM; the koff is 0.0341 s⁻¹ and 0.0351 s⁻¹ and 0.0276 s⁻¹ and 0.0365 s⁻¹; the kon was 252000 M⁻¹ s⁻¹ and 306000 M⁻¹ s⁻¹ and 238000 M⁻¹ s⁻¹ and 581000 M⁻¹ s⁻¹.
